Measured values from the nanobody polyreactivity screen of Harvey et al. (2022).

Assay: yeast display, Sf9 membrane polyspecificity reagent, FACS + sequencing; frameworks hold sequencing errors
Summary of the method: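 Synthetic nanobody libraries on Saccharomyces cerevisiae BJ5465 were galactose-induced for 36–48 hours, stained 1 hour at 4 °C with 10% biotinylated, detergent-solubilized Sf9 membrane reagent and enriched on streptavidin microbeads. FACS then separated cells into low and high (top ~1%) gates by anti-HA (expression) and streptavidin (reagent binding) fluorescence. Genes were colony-PCR amplified, MiSeq 2 × 250 sequenced and CDR-length filtered. A clone's polyreactivity label is that of its gate of origin.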

Sequence | polyreactivity (PSR sort gate)
QVQLVESGGGLVQAGGSLRLSCAASGFTLYTYAMGWYRQAPGKERELVAAISTGGGRTYYADSVKGRFTISRDNAKNTVYLQMNSLKPEDTAVYYCAADSLAKTGGTVGGDYWGQGTQVSVSS | high polyreactivity
QVQLVESGGGLVQAGGSLRLSCAASGFTNAMGWYRQAPGKERELVAAISYSGDSTNYADSVKGRFTISRDNAKNTVYLQMNSLKPEDSAVYYCNASSPYDYDWGQGTQVTVSS | low polyreactivity
QVQLVESGGGLVQAGGSLRLSCAASGFTSHSYAMGWYRKAPGKERELVAAINGDGGSTYYADSVKGRFTISRDNAKNTLYLQMNSLKPEDTAVYYCAAETAYWYYWGQGSQVTVSS | high polyreactivity
QVQLVESGGGLVQAGGSLRLSCAASGFTSSNNAMGWYRQAPGKERELFAAISSSGGRTYYADSVKGRFTISRDNAKNTVYLQMNSLQPEDTAVYFCAATGYVGGIYGHYPRGYWGQGTQVTVSS | high polyreactivity
QVQLVESGGGLVQAGGSLRLSCAASGFTSTAYAMGWYRQAPGKERELVAVISSGSSTHYADSVKGRFTISRDNAKNTVYLQMNSLKPEDTAVYYCAARIRTRYFTGFYYWGQGTQVTVSS | high polyreactivity
QVQLVESGGGLVQAGGSLRLSCAASGFTSTINAMGWYRQAPGKERELVAAISVSSGSTYYADSVKGRFTISRDNAKNTVYLQMNSLKPEDTAVYYCATGISRDYIYIILRYDYWGQGTQVTVSS | low polyreactivity
QVQLVESGGGLVQAGGSLRLSCAASGFTSWQYAMGWYRQAPGKERELVAAISVSGASTNYADSVRGRFTISRDNAKNTVYLQMNSLKPEETAVYYCAAAYVRYPTTRYYYWGQGTQVTVSS | high polyreactivity
QVQLVESGGGLVQAGGSLRLSCAASGFTSYGYAMGWYRQAPGKERELVAAISRSGGSTYYADSVKGRFTISRDNAKNTVYLQMNSLKPEDTAVYYCAVAVGREYVYRYYYWGQGTQVTVSS | high polyreactivity
QVQLVESGGGLVQAGGSLRLSCAASGFTVVSYAMGWYRQAPGKERELVAAITYSGTSTYYADSVKGRFTISRDKAKNTVYLQMNSLKPEDTAVYYCNADSSWVPIWYEYDYWGHGTQVTVSS | low polyreactivity
QVQLVESGGGLVQAGGSLRLSCAASGFTVYYYALGWYRQAPGKERELVAAISDSGGITSYADSVKGRFTISRDNAKNTVYLQMNSLKPEDTAVYYCAYIFGWSSSSKSYYYWGQGTQVTVSS | low polyreactivity
QVQLVESGGGLVQAGGSLRLSCAASGFTYDLNAMGWYRQAPGKEREFVATISQSTGSTYYADSVKGRFTISRDNAKNTVYLQMNSLKPEDTAVYYCNKDRPYTLTWGLYEYWGQGTQVTVSS | low polyreactivity
QVQLVESGGGLVQAGGSLRLSCAASGFTYGYYAMGGYRQAPGKERELVAAITNGGRTNYADSVKGRFTISRDNAKNTVYLQMNSLKPEDTAVYYCATDHYWSREGYWGQGTQVTVSS | low polyreactivity
QVQLVESGGGLVQAGGSLRLSCAASGFTYVYNAMGWYRQAPGTERELVAAISSGGSTYYADSVKGRFTISRDNAKYTVYLQMNSLKPEDTAVYYCARRSSWFKYEYWGQGTQVTVSS | low polyreactivity
QVQLVESGGGLVQAGGSLRLSCAASGFVWNAMGWYRPAPGTERELVAAINWRGGSTNYADSVKGRFTISRDNAKNTVYLQMNSLKPEDTAVYYCAAYFFHYHFYQAAYDYWGQGTQVTVSS | low polyreactivity
QVQLVESGGGLVQAGGSLRLSCAASGGIAGNTMGWYRQAPGKERELVAAITRSGGRTYYADSVKGRFTISRDNAKNTVYLQMNSLKPEDTAVYYCAVTGLVRRRYGYWGQGTQVTVSS | high polyreactivity
QVQLVESGGGLVQAGGSLRLSCAASGGIFARNVMGWYRQAPGKERELVAAISGSGGSTYYADSVKGRFTISRDNAKNTVYLQMNSLKPEDTAVYYCAARTPGVSVYKDGYWGQGTQVTVSS | low polyreactivity
QVQLVESGGGLVQAGGSLRLSCAASGGIFARNVMGWYRQAPGKERELVAAISGSGGSTYYADSVKGRFTISRDNAKNTVYLQMNSLKPEDTAVYYCAARTPGVSVYKDGYWGQGTQVTVTS | low polyreactivity
